# Results published in article PMC10183829, “Shuffled ATG8 interacting motifs form an ancestral bridge between UFMylation and autophagy” (The EMBO Journal, 2023).
# No end group written: not given here. TAMRA = 5(6)-carboxytetramethylrhodamine
# T1: ATG8A (purified) (Arabidopsis thaliana, UniProt Q8LEM4 1-117)
# T1 construct: ATG8A, Arabidopsis thaliana; 3C site after the His6 tag; 15N-labelled or unlabelled in NMR; also called HIS6-3C-ATG8A; source: E. coli Rosetta2 (DE3) pLysS, purified (HisTrap, ion exchange, SEC)
# T1 sequence (looked up): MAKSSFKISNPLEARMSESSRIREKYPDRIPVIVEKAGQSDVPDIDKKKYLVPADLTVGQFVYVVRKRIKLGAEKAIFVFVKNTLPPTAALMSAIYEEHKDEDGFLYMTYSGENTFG
# T2: mCh-HsC53 (human, UniProt Q96JB5 1-506)
# T2 construct: also called mCherry-tagged human C53; not shown: mCherry, N-terminal, kept
# T2 sequence (looked up): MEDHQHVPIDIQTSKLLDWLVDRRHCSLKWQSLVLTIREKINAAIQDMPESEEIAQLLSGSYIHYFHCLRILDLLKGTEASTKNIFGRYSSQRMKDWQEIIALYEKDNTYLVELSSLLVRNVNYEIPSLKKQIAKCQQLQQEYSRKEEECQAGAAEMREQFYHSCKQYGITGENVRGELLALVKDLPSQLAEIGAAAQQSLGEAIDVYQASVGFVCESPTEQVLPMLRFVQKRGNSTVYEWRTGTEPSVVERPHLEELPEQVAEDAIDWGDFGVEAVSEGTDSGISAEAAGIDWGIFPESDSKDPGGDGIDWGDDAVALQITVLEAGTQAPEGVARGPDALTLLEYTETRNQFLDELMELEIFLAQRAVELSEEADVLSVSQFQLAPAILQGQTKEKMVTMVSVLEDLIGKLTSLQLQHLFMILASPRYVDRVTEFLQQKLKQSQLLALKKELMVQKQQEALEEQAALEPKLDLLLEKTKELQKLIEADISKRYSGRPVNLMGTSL
# B1: GABARAP (purified) (natural protein, human)
# chain: FVYKEEHPFEKRRSEGEKIRKKYPDRVPVIVEKAPKARIGDLDKKKYLVPSDLTVGQFYFLIRKRIHLRAEDALFFFVNNVIPPTSATMGQLYQEHHEEDFFLYIAYSDESVYG
# notes: GABARAP, Homo sapiens; 15N-labelled in the NMR titration; also called HIS6-3C-GABARAP; HIS6-GABARAP; source: E. coli Rosetta2 (DE3) pLysS, purified (HisTrap, ion exchange, SEC)
# B2: HsC53^cAIM (purified, ITC) (natural protein)
# chain: MEDHQHVPIDIQTSKLLDWLVDRRHCSLKWQSLVLTIREKINAAIQDMPESEEIAQLLSGSYIHYFHCLRILDLLKGTEASTKNIFGRYSSQRMKDWQEIIALYEKDNTYLVELSSLLVRNVNYEIPSLKKQIAKCQQLQQEYSRKEEECQAGAAEMREQFYHSCKQYGITGENVRGELLALVKDLPSQLAEIGAAAQQSLGEAIDVYQASVGFVCESPTEQVLPMLRFVQKRGNSTVYEWRTGTEPSVVERPHLEELPEQVAEDAWDGIDFGVEAVSEGTDSGISAEAAGWDGIIFPESDSKDPGGDGWDGIDDAVALQITVLEAGTQAPEGVARGPDALTLLEYTETRNQFLDELMELEIFLAQRAVELSEEADVLSVSQFQLAPAILQGQTKEKMVTMVSVLEDLIGKLTSLQLQHLFMILASPRYVDRVTEFLQQKLKQSQLLALKKELMVQKQQEALEEQAALEPKLDLLLEKTKELQKLIEADISKRYSGRPVNLMGTSL
# notes: source: E. coli Rosetta2 (DE3) pLysS, purified
# Tests used:
# Details in all cases: both partners purified
# HsUFM1 (purified) = target: T3, HsUFM1 (purified) (human, UniProt P61960 1-85); test: native MS; HsUFM1 (5 μM) with peptide (25 μM); ammonium acetate, nanoelectrospray, Synapt G2Si
# T3 construct: UFM1, Homo sapiens; 15N-labelled in the NMR titration; also called human UFM1; source: E. coli Rosetta2 (DE3) pLysS, purified (HisTrap, ion exchange, SEC)
# AtUFM1 (purified) = target: T4, AtUFM1 (purified) (Arabidopsis thaliana); test: fluorescence polarisation; fluorescence anisotropy; ATG8A or AtUFM1 (250 nM-320 μM) added to 50 nM TAMRA-labeled peptide, 10 min at 4°C
# T4 construct: UFM1, Arabidopsis thaliana; 15N-labelled or unlabelled in NMR; also called HIS6-3C-AtUFM1; HIS6-AtUFM1; source: E. coli Rosetta2 (DE3) pLysS, purified (HisTrap, ion exchange, SEC)
# ATG8A (purified) = target: T1, ATG8A (purified); test: as above
# mCh-HsC53 = target: T2, mCh-HsC53; test: microscopy-based on-bead protein-protein interaction assay
# [1] = target: B2; test: ITC
# GABARAP (purified) = target: B1; test: ITC
# cAIM wt peptide = test: microscopy-based on-bead protein-protein interaction assay
# T3 sequence (P61960 whole entry): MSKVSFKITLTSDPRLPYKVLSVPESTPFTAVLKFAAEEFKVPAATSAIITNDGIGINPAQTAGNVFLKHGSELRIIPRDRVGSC
binder,measurement,setting,value
GPLHDDNEWNISVVDD (LIR/UFIM peptide of UBA5; also called AtUBA5 LIR/UFIM peptide; UBA5 LIR/UFIM; source: synthetic peptide (synthetized in house)) [AtUBA5 LIR peptide],stoichiometry N,HsUFM1 (purified),1
"{TAMRA}-AADSIDWDITVETPEIDWDVSMVEEV [sAIM1,2 peptide (AtC53 IDR-derived peptide that covers both sAIM1 and sAIM2)]",Kd,AtUFM1 (purified),148 µM
same,Kd,ATG8A (purified),26.5 µM
"GST-GABARAP (natural protein, human, UniProt O95166 1-117, looked up, also called human ATG8 isoform GABARAP; human ATG8; not shown: GST, N-terminal, kept) MKFVYKEEHPFEKRRSEGEKIRKKYPDRVPVIVEKAPKARIGDLDKKKYLVPSDLTVGQFYFLIRKRIHLRAEDALFFFVNNVIPPTSATMGQLYQEHHEEDFFLYIAYSDESVYGL",binding result,mCh-HsC53,binds
B1,Kd,[1],11.2 µM
B2,fold increase in affinity against the C53 wild type,GABARAP (purified),1.8 fold
"GST-ATG8A (natural protein, also called Arabidopsis ATG8A; not shown: GST, N-terminal, kept) MAKSSFKISNPLEARMSESSRIREKYPDRIPVIVEKAGQSDVPDIDKKKYLVPADLTVGQFVYVVRKRIKLGAEKAIFVFVKNTLPPTAALMSAIYEEHKDEDGFLYMTYSGENTFG",binding result,cAIM wt peptide,binds
